Assay results as given in patent US20200017592A1 (Regeneron, published 2020).
Values belong to the binder of their own block, whether it stands above or below them.

Columns and labels:
[1] = molecular target: T1, human IL-36R extracellular domain expressed with a C-terminal myc-myc-hexahistidine tag (hIL-36R-MMH) (human, UniProt Q9HB29 20-337); assay: SPR Biacore T200, mAb captured on anti-hFc, 25C, PBS-T pH 6.0 running buffer
T1 construct: also called Human IL-36R-MMH; REGN2105
Description: (§1) Additional binding experiments were performed to determine the effect of pH on the rate of dissociation of IL-36R bound to purified anti-IL-36R antibodies, which was determined using a real-time surface plasmon resonance biosensor using a Biacore T200 instrument. The Biacore sensor surface was first derivatized by amine coupling with a monoclonal mouse anti-human Fc antibody (GE, # BR-1008-39) to capture anti-IL-36R antibodies. […] Different concentrations of hIL-36R-MMH and mfIL-36R-MMH prepared in PBS-T, pH7.4 buffer (ranging from 100 nM to 11.11 nM, 3-fold dilutions) were injected over the anti-IL-36R antibody captured surface for 4 minutes at a flow rate of 50 μL/minute and their dissociation in two running buffers, PBS-T, pH7.4 and PBS-T, pH 6.0, was monitored for 10 minutes. All of these binding kinetics experiments were performed at 25° C. and 37° C. Kinetic dissociation constant (kd) were determined by fitting the real-time sensorgrams to a 1:1 binding model using Scrubber 2.0c curve fitting software. Binding dissociative half-lives (t_{1/2}) were calculated from kd as: […]

[2] = molecular target: T1, human IL-36R extracellular domain …; assay: SPR Biacore T200, mAb captured on anti-hFc, 25C, PBS-T pH 7.4 running buffer
Description: as §1

[3] = molecular target: T1, human IL-36R extracellular domain …; assay: SPR Biacore T200, mAb captured on anti-hFc, 37C, PBS-T pH 7.4 running buffer
Description: as §1

[4] = molecular target: T2, human IL-36R extracellular domain expressed with a C-terminal mouse IgG2a Fc tag (hIL-36R-mFc) (human; mouse, UniProt Q9HB29 20-337); assay: SPR Biacore 4000, mAb captured on anti-hFc, 25C
T2 construct: not shown: mouse IgG2a Fc, E98-K330
T2 sequence (looked up): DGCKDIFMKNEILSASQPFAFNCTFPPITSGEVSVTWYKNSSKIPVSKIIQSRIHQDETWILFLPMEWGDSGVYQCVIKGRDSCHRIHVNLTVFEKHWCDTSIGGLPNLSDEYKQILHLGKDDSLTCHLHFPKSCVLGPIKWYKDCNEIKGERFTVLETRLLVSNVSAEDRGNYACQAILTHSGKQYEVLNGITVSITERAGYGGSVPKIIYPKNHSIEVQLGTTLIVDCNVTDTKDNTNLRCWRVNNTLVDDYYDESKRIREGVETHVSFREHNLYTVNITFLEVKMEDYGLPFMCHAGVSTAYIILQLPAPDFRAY
Description: (§2) Equilibrium dissociation constants (KD values) for IL-36R binding to purified anti-IL-36R antibodies were determined using a real-time surface plasmon resonance biosensor using a Biacore 4000 instrument. The Biacore sensor surface was first derivatized by amine coupling with a monoclonal mouse anti-human Fc antibody (GE, # BR-1008-39) to capture anti-IL-36R monoclonal antibodies. All binding studies were performed in 0.01 M Hepes pH 7.4, 0.15 M NaCl, 3 mM EDTA, and 0.05% v/v Surfactant Tween-20 (HBS-ET running buffer) at 25° C. and 37° C. Different concentrations of IL-36R reagents, human IL-36R extracellular domain expressed with a C-terminal myc-myc-hexahistidine tag (hIL-36R-MMH), Macaca fascicularis IL-36R extracellular domain expressed with a C-terminal myc-myc-hexahistidine tag (mfIL-36R-MMH: mROR1 signal sequence (M1-A29). Macaca fascicularis IL36R_ecto domain (D20-A336).mycmycHis6), human IL-36R extracellular domain expressed with a C-terminal mouse IgG2a Fc tag (hIL-36R-mFc: mROR1 signal sequence (M1-A29)-human IL36R (D20-Y337)-mouse IgG2aFc (E98-K330)) or an in-line fusion protein of human IL-36R extracellular domain and IL1RAcP extracellular domain expressed with mouse IgG2a Fc tag (hIL-36R-Trap-mFc: mROR1 signal sequence (M1-A29)-human IL36R ecto domain (D20-Y337)-human IL1RacP ecto domain(S21-E359)-mouse IgG2aFc) in HBS-ET running buffer (ranging from 100 nM to 3.7 nM, 3-fold dilutions) were injected over the anti-IL-36R antibody captured surface for 4 minutes at a flow rate of 30 μL/minute and their dissociation in HBS-ET running buffer was monitored for 10 minutes. Kinetic association rate constant (kₐ) and dissociation rate constant (kd) were determined by fitting the real-time sensorgrams to a 1:1 binding model using Scrubber 2.0c curve fitting software. Binding dissociation equilibrium constants (KD) and dissociative half-lives (t_{1/2}) were calculated from the kinetic rate constants as: […]

[5] = molecular target: T3, in-line fusion protein of human IL-36R extracellular domain and IL1RAcP extracellular domain expressed with … (human; mouse, UniProt Q9HB29 20-337; Q9NPH3 21-359, limits assumed); assay: SPR Biacore 4000, mAb captured on anti-hFc, 25C
T3 construct: not shown: mouse IgG2a Fc
T3 sequence (looked up): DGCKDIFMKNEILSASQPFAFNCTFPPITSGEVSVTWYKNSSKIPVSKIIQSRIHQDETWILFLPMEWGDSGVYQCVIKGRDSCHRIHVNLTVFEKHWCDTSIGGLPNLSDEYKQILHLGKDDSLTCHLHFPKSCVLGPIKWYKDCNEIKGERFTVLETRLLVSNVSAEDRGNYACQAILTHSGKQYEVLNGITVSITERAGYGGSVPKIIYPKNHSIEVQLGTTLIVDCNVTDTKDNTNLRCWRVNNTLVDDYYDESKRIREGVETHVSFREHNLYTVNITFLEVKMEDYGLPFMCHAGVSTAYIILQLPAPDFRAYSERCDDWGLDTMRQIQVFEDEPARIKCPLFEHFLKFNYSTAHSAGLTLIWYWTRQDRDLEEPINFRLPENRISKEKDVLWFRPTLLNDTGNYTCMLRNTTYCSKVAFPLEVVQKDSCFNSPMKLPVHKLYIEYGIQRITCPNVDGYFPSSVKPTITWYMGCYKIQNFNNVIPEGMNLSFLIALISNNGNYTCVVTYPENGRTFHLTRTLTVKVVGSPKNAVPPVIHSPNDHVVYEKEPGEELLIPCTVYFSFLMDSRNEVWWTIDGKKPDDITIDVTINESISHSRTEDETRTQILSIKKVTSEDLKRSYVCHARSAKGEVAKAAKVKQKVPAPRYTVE
Description: as §2

[6] = molecular target: T1, human IL-36R extracellular domain …; assay: SPR Biacore T200, mAb captured on anti-hFc, 37C, PBS-T pH 6.0 running buffer
Description: as §1

[7] = molecular target: T2, human IL-36R extracellular domain …; assay: SPR Biacore 4000, mAb captured on anti-hFc, 37C
Description: as §2

[8] = molecular target: T3, in-line fusion protein of human IL-36R …; assay: SPR Biacore 4000, mAb captured on anti-hFc, 37C
Description: as §2

100 nM Human IL-36R-MMH Bound (RU) [1]: 28 RU | koff [1]: 0.000918 s⁻¹ | t1/2 [1]: 13 min | 100 nM Human IL-36R-MMH Bound (RU) [2]: 32 RU | koff [2]: 0.000865 s⁻¹ | t1/2 [2]: 13 min | 100 nM hIL-36R-MMH Bound (RU) [3]: 40 RU | koff [3]: 0.0011 s⁻¹ | t1/2 [3]: 10 min | 100 nM hIL-36R-mFc Bound (RU) [4]: 145 RU | Kd [4]: 1.4 nM | koff [4]: 0.000797 s⁻¹ | kon [4]: 570000 M⁻¹ s⁻¹ | t1/2 [4]: 14 min | 100 nM hIL-36R-Trap-mFc Bound (RU) [5]: 161 RU | Kd [5]: 2.95 nM | koff [5]: 0.00136 s⁻¹ | kon [5]: 462000 M⁻¹ s⁻¹ | t1/2 [5]: 8 min | 100 nM hIL-36R-MMH Bound (RU) [6]: 36 RU | koff [6]: 0.00123 s⁻¹ | t1/2 [6]: 9 min | 100 nM hIL-36R-mFc Bound (RU) [7]: 195 RU | Kd [7]: 2 nM | koff [7]: 0.00127 s⁻¹ | kon [7]: 635000 M⁻¹ s⁻¹ | t1/2 [7]: 9 min | 100 nM hIL-36R-Trap-mFc Bound (RU) [8]: 212 RU | Kd [8]: 3.63 nM | koff [8]: 0.00182 s⁻¹ | kon [8]: 501000 M⁻¹ s⁻¹ | t1/2 [8]: 6 min
B1: H4H14732P2 (antibody, human IgG4 S228P, kappa, V domains shown)
VH: EVQLVESGGGLVQPGRSLRLSCAASGFTFDDYAMHWVRQAPGKGLEWVSGINWAGYNIDYADSVKGRFTISRDNAKNSLYLQMNSLRAEDTALYYCAKDMRGFSYGFPFDYWGQGTLVTVSS
VL: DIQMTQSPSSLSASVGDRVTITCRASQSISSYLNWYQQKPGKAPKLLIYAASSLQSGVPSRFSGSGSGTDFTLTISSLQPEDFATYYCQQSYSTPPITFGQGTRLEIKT
notes: Fully human anti-IL-36R antibody

100 nM Human IL-36R-MMH Bound (RU) [1]: 96 RU | koff [1]: 0.000887 s⁻¹ | t1/2 [1]: 13 min | 100 nM Human IL-36R-MMH Bound (RU) [2]: 103 RU | koff [2]: 0.000898 s⁻¹ | t1/2 [2]: 13 min | 100 nM hIL-36R-MMH Bound (RU) [3]: 121 RU | koff [3]: 0.00296 s⁻¹ | t1/2 [3]: 4 min | 100 nM hIL-36R-mFc Bound (RU) [4]: 7 RU | 100 nM hIL-36R-Trap-mFc Bound (RU) [5]: 63 RU | Kd [5]: 14 nM | koff [5]: 0.000565 s⁻¹ | kon [5]: 40300 M⁻¹ s⁻¹ | t1/2 [5]: 20 min | 100 nM hIL-36R-MMH Bound (RU) [6]: 114 RU | koff [6]: 0.00306 s⁻¹ | t1/2 [6]: 4 min | 100 nM hIL-36R-mFc Bound (RU) [7]: 11 RU | Kd [7]: 28.7 nM | koff [7]: 0.000465 s⁻¹ | kon [7]: 16200 M⁻¹ s⁻¹ | t1/2 [7]: 25 min | 100 nM hIL-36R-Trap-mFc Bound (RU) [8]: 89 RU | Kd [8]: 40.9 nM | koff [8]: 0.00198 s⁻¹ | kon [8]: 48500 M⁻¹ s⁻¹ | t1/2 [8]: 6 min
B2: H4H14728P (antibody, human IgG4 S228P, kappa, V domains shown)
VH: QVQLQESGPGLVKPSQTLSLTCTVSGGSISSADYYWSWIRQHPGKGLEWIGSIYYTGSTYYNPSLKSRLTISIDTSENQFSLKLTSLTAADTAVYYCASEEANWGSHFDSWGQGTLVTVSS
VL: DIQMTQSPSSLSASVGDRVTITCRASQSIDNFLNWYQQKPGKAPKLLIYAASSLQSGVPSRFSGSGSGTDFTLTISSLQPEDFASYYCQHSHSAHPITFGQGTRLEIKR
notes: as for B1
